# Test results as given in article PMC5916030.
# How the values were obtained:
# [1] = biological target: anthrax lethal factor (LF) (Bacillus anthracis, UniProt P15917 34-809); assay: […]) immobilized in 20 mM HEPES pH 7.4, […]
# Target sequence in this assay (P15917 34-809): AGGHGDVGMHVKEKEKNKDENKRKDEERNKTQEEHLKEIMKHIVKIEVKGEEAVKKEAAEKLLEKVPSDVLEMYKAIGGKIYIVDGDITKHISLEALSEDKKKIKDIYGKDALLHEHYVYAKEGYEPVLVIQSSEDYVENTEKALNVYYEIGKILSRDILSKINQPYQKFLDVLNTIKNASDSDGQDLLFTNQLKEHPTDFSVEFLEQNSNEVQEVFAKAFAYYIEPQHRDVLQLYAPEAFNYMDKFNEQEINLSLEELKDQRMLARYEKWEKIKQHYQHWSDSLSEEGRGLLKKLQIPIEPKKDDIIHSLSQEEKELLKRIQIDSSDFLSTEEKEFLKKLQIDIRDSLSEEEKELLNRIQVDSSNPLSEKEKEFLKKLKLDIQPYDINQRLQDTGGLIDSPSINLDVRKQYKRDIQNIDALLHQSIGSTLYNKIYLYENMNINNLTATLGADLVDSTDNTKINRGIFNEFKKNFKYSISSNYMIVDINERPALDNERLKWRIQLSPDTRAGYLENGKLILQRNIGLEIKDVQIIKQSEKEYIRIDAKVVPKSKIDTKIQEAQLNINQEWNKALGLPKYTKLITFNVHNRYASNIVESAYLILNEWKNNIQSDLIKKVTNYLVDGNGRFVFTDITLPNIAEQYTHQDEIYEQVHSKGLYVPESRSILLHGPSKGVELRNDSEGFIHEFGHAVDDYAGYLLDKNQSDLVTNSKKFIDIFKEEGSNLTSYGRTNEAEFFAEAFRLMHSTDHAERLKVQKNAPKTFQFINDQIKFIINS
# [2] = biological target: anthrax lethal factor (LF) (Bacillus anthracis, UniProt P15917 34-809); assay: aptamer ELISA
# Target sequence in this assay (P15917 34-809): as above
Binder,binding result [1],binding result [2]
GGACCAGCCGCCGCGCCTTGACCGGGGGTA (ssDNA) [ML6],no binding,–
CGCACTGAAGTGGGATACCGCCTAAACGGA (ssDNA) [scramble 30-mer],–,no binding
GGAGAGAGGGAGACGCGCAACCTCGACCCGT (ssDNA) [ML7],no binding,–
